Reference: patent publication US20230303715A1

Experiments:
Test in all cases: SPR Biacore, Ab on HER2 chip
[1] = target: FcγRIIaH (UniProt P12318)
[2] = target: FcγRIIb (UniProt P31994)
[3] = target: FcγRIIaR (UniProt P12318)
[4] = target: FcγRI (UniProt P12314)
Sequence of FcγRI (P12314 16-292 limits assumed): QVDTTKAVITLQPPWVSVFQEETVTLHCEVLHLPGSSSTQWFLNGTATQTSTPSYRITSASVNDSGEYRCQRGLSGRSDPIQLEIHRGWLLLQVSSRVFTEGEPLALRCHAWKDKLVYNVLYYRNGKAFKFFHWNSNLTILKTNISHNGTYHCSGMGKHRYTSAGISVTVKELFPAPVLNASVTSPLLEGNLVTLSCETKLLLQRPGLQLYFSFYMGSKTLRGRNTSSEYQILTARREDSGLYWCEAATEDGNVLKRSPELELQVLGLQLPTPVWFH

Sequence of FcγRIIaH (P12318 34-217 limits assumed): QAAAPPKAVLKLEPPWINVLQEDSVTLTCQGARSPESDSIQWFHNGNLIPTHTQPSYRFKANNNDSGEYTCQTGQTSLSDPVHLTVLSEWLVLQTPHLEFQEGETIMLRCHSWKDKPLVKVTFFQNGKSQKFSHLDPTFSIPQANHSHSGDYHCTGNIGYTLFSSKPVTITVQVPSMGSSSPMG
Sequence of FcγRIIb (P31994 43-217 limits assumed): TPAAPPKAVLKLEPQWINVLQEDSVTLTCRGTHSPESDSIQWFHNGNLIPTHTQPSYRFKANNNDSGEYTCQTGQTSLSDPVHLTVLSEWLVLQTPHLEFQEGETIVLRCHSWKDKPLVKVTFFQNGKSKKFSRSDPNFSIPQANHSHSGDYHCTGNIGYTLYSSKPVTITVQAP
Sequence of FcγRIIaR (P12318 34-217 H167R limits assumed): as the sequence (P12318 34-217 limits assumed) above, with H134R counted along it

Kd [1]: 575 nM | Kd [2]: 15.5 nM | Kd [3]: 61.4 nM | Kd [4]: 0.532 nM
B1: one-armed trastuzumab antibody, Scaffold 9, variant v27319 (L242C_I336C/V308I) (antibody, part only; not given: Trastuzumab Fab arm, not shown: another chain or arm of the molecule)
Fc 1: APEFLNGPSVFCFPPKPKDTLMISRTPEVTCVVVDVSQEDPEVKFNWYVDGVEVHNAKTKPREEQYNSTYRVVSVLTILHQDWLNGKEYKCKVSNKGLPKSIEKTCSKAKGQPREPQVYVYPPSRDELTKNQVSLTCLVKGFYPSDIAVEWESNGQPENNYKTTPPVLDSDGSFALVSKLTVDKSRWQQGNVFSCSVMHEALHNHYTQKSLSLSPGK
Fc 2: APELLDGPDVFCFPPKPKDTLMISRTPEVTCVVVDLADEDPEVKFNWYVDGVEVHNAKTKPREEQYNSTYRVVSVLTILHQDWLNGKEYKCKVSNKALPAPIEKTCSKAKGQPREPQVYVLPPSRDELTKNQVSLLCLVKGFYPSDIAVEWESNGQPENNYLTWPPVLDSDGSFFLYSKLTVDKSRWQQGNVFSCSVMHEALHNHYTQKSLSLSPGK
modifications: Engineered intrachain disulphide C242-C336 in each Fc chain.
